The target in test [1] is CD24 on tumor cells (MCF7, SKOV3, HT55, huCD24-MDA-MB-231, CD24-SKOV3) (human) (UniProt P25063). Description: flow cytometry on MCF7 cells (MFI); fit value given for a flat control curve; unit inferred, unit from the x axis label.
Test [2] has the same target. Kind of test: flow cytometry on SKOV3 cells (MFI); fit value given for a flat control curve; unit inferred, unit from the x axis label. Background: Flow cytometry measures light scatter and fluorescence of single cells or particles in a stream.
The target is the same in test [3]. Description: flow cytometry on huCD24-MDA-MB-231 cells (MFI); fit value given for a flat control curve; unit inferred, unit from the x axis label.
Test [4] has the same target. Kind of test: flow cytometry on SKOV3 cells (MFI).
Test [5] has as its target T1, CD24 on tumor cells (MCF7, SKOV3, HT55, huCD24-MDA-MB-231, CD24-SKOV3) (human, UniProt P25063 27-59).
T1 construct: whole, on cells; The cell line of each result is named under assay
T1 chain (looked up): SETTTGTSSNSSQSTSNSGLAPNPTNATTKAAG
Kind of test: flow cytometry on MCF7 cells (MFI). On the procedure:
The commercial antibody SN3 (ABCOM; ab134375) and IgG1 isotype control were used as control. MCF7, SKOV3, HT55 or huCD24-MDA-MB-231 cells were taken and transferred to a centrifuge tube, and centrifuged at 1000 rpm for 5 min. 100 μL of MCF7, SKOV3, HT55, or huCD24-MDA-MB-231 cells were spread in a 96 U plate, respectively, and washed twice with PBS. 100 μL of the fusion supernatant was added, and diluted for 8 gradients. Cells were incubated at 4° C. for 60 minutes, and then washed twice with excess FACS buffer. Cells were resuspended in 100 μL of FACS buffer and sheep anti-mouse secondary antibody-FITC (ABCOM; ab6785) was added to the samples, incubated for 30 minutes and washed twice with excess FACS buffer. Cells were fixed in fixation buffer and subsequently analyzed by flow cytometry.

The target in test [6] is T1, CD24 on tumor cells (MCF7, SKOV3, HT55, …). Description: flow cytometry on MCF7 cells (MFI).
The target of test [7] is T2, human CD24 protein (ACRO) (human, UniProt P25063 27-59).
T2 construct: also called analyte human CD24 protein
T2 chain (looked up): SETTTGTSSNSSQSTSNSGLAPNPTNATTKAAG
Kind of test: BLI (ForteBio Octet RED96e), antibody immobilised, human CD24 protein as analyte. As to the method:
ForteBio […] (BLI) was used to detect the affinity of humanized antibodies. The sample to be tested (solidified) was diluted to 20 μg/mL with 0.02% PBST (buffer). The analyte human CD24 protein (ACRO) was diluted to 100 nM with 0.02% PBST (buffer) as the initial concentration, and then diluted by double gradient for 7 gradients starting from this concentration, and a negative control (buffer) was performed.
The molecular interaction analysis instrument (ForteBio; Octet RED96e) was operated, and 200 μL of curing buffer (0.02% PBST) was added to a pre-wetted plate, and the sensor was pre-wetted for 5-10 min. Diluted samples and other reagents for assay were added into wells in the sample plate corresponding to the pre-wetted sensor.
On the technique in general: Biolayer interferometry detects binding as a change in optical thickness at a sensor tip.

For test [8], the target named is T1, CD24 on tumor cells (MCF7, SKOV3, HT55, …). Description: flow cytometry on huCD24-MDA-MB-231 cells (MFI); table under the graph prints no unit, unit from the x axis label.

17 molecules from patent publication US20250263499A1 (SHENGHE CHINA BIOPHARMACEUTICAL, published 2025) can be followed below.

The term EC50 denotes the concentration at which the effect is half-maximal. Read a high EC50 as a less potent agent. For the molecule IgG1 isotype control (antibody), the EC50 in test [1] turned out to be 0.142 mg/L; in test [2], 49.7 mg/L; in test [3] it was 3.49 mg/L.
What is called EC50 (read off the curve) is the concentration that produces a half-maximal response. Low values mean a more potent agent, high ones a less potent agent. Turning to “commercial antibody SN3 (ABCOM; ab134375)”, the EC50 (read off the curve) in test [4] came out at 2 mg/L.

B1: murine anti-CD24 antibody ms-01 (antibody, V domains shown)
VH: QIQLVQSGPELKKPGETVKISCKASGYIFTDYAIHWVKQAPGKGLKWMGFINTATGEPTYADDFKGRFAFSLETSASTAYLQVNSLKNEDTATYFCTSGVHWGQGTTLTVSS
VL: QIVLTQSPAIMSASLGEEITLTCSASSSVSSMHWYQQKSGTSPKLLIYSTSNLASGVPSRFSGSGSGTFYSLTISSVESEDAADYYCHHWTSYMYTFGGGTKLEIK
notes: Mouse antibody from a hybridoma
For the molecule B1, the “EC50 (read off the curve)” value in test [5] is around 2 mg/L.

B2: hu-02-L1H8 (antibody, human IgG1, kappa, V domains shown)
VH: EVQLQESGPGLVKPSQTLSLTCTVSGYSITSGYTWHWIRQFPGNKLEWMGHIQYTGNTKYNPSLESRITISRDTSKNQFSLKLSSVTAADTATYYCARGSTNSNDYWGQGTLVTVSS
VL: DIVMTQSPDSLAVSLGERATINCKSSQSLLYSNDQKNYLAWYQQKPGQPPKLLIYWASTRESGVPDRFSGSGSGTDFTLTISSLQAEDVAVYYCQQYFIYPLTFGGGTKLELKR
notes: also called humanized antibody hu-02-L1H8
As to B2, in test [6], the binding result was “binds”.

B3: humanized antibody hu-02-L1H7 (antibody, human IgG1, kappa, V domains shown)
VH: EVQLQESGPGLVKPSQTLSLTCTVSGYSITSGYTWHWIRQFPGNKLEWIGHIQYTGNTKYNPSLESRITISRDTSKNQFSLKLSSVTAADTATYYCARGSTNSNDYWGQGTLVTVSS
VL: DIVMTQSPDSLAVSLGERATINCKSSQSLLYSNDQKNYLAWYQQKPGQPPKLLIYWASTRESGVPDRFSGSGSGTDFTLTISSLQAEDVAVYYCQQYFIYPLTFGGGTKLELKR
notes: Humanized from ms-02: light chain L1, heavy chain H7
As a reminder, the Kd is a measure of binding affinity in units of concentration. A high value points to a looser complex. B3 yielded a Kd in test [7] of 0.0205 µM. Also, the half-maximal effective concentration (EC50) in test [8] came to 3.42 mg/L.

B4: humanized antibody hu-02-L1H1 (antibody, human IgG1, kappa, V domains shown)
VH: QVQLQESGPGLVKPSQTLSLTCTVSGYSITSGYTWHWIRQHPGKGLEWIGHIQYTGNTKYNPSLESRVTISVDTSKNQFSLKLSSVTAADTAVYYCARGSTNSNDYWGQGTLVTVSS
VL: DIVMTQSPDSLAVSLGERATINCKSSQSLLYSNDQKNYLAWYQQKPGQPPKLLIYWASTRESGVPDRFSGSGSGTDFTLTISSLQAEDVAVYYCQQYFIYPLTFGGGTKLELKR
notes: Humanized from ms-02: light chain L1, heavy chain H1
Turning to B4, in test [7], the Kd worked out at 0.0627 µM. In addition, in test [8], it took 2.08 mg/L to reach a half-maximal effect (EC50).

B5: chimeric antibody CH-02 (antibody, human IgG1, kappa, V domains shown)
VH: EVQLQESGPDLVKPSQSLSLTCTVTGYSITSGYTWHWIRQFPGNKLEWMGHIQYTGNTKYNPSLESRISITRETSKNQFFLQLNSVTTEDTGTYYCARGSTNSNDYWGQGTSVTVSS
VL: DIVMTQSPSSLAVSVGEKVTVSCKSSQSLLYSNDQKNYLAWYQQKPGQSPKLLIYWASTRESGVPDRFTGSGSGTDFTLTITSVKAEDLAVYYCQQYFIYPLTFGAGTKLELKR
notes: ms-02 variable regions on a human IgG framework, expressed in CHO cells
Consider B5, for which the Kd in test [7] turned out to be 0.0119 µM. For the same molecule, in test [8], the EC50 was found to be 4.03 mg/L.

B6: humanized antibody hu-01-L2H3 (antibody, human IgG1, kappa, V domains shown)
VH: QVQLVQSGSELKKPGASVKVSCKASGYIFTDYAIHWVKQAPGQGLEWMGFINTATGEPTYADDFKGRFVFSLDTSVSTAYLQISSLKAEDTAVYFCTSGVHWGQGTLVTVSS
VL: DIQMTQSPSTLSASVGDRVTITCSASSSVSSMHWYQQKPGKAPKLLIYSTSNLASGVPSRFSGSGSGTEYTLTISSLQPDDFATYYCHHWTSYMYTFGGGTKVEIKR
notes: Humanized from ms-01: light chain L2, heavy chain H3
Turning to B6, binding in test [7] was put at a Kd of 0.00903 µM.

B7: humanized antibody hu-01-L3H4 (antibody, human IgG1, kappa, V domains shown)
VH: QVQLVQSGSELKKPGASVKVSCKASGYIFTDYAIHWVKQAPGQGLKWMGFINTATGEPTYADDFKGRFVFSLDTSVSTAYLQISSLKAEDTAVYFCTSGVHWGQGTLVTVSS
VL: DIQLTQSPSTLSASVGDRVTITCSASSSVSSMHWYQQKPGKSPKLLIYSTSNLASGVPSRFSGSGSGTEYTLTISSLQPDDFATYYCHHWTSYMYTFGGGTKVEIKR
notes: Humanized from ms-01: light chain L3, heavy chain H4
B7 registered an equilibrium dissociation constant (Kd) in test [7] of 0.0412 µM.

B8: humanized antibody hu-01-L1H3 (antibody, human IgG1, kappa, V domains shown)
VH: QVQLVQSGSELKKPGASVKVSCKASGYIFTDYAIHWVKQAPGQGLEWMGFINTATGEPTYADDFKGRFVFSLDTSVSTAYLQISSLKAEDTAVYFCTSGVHWGQGTLVTVSS
VL: DIQMTQSPSTLSASVGDRVTITCSASSSVSSMHWYQQKPGKAPKLLIYSTSNLASGVPSRFSGSGSGTEFTLTISSLQPDDFATYYCHHWTSYMYTFGGGTKVEIKR
notes: Humanized from ms-01: light chain L1, heavy chain H3
With B8, in test [7], the dissociation constant Kd was determined as 0.01 µM. This Kd is about 4.1-fold lower than that of the molecule before.

B9: humanized antibody hu-01-L1H2 (antibody, human IgG1, kappa, V domains shown)
VH: QVQLVQSGSELKKPGASVKVSCKASGYIFTDYAIHWVRQAPGQGLEWMGFINTATGEPTYADDFKGRFVFSLDTSVSTAYLQISSLKAEDTAVYFCTSGVHWGQGTLVTVSS
VL: DIQMTQSPSTLSASVGDRVTITCSASSSVSSMHWYQQKPGKAPKLLIYSTSNLASGVPSRFSGSGSGTEFTLTISSLQPDDFATYYCHHWTSYMYTFGGGTKVEIKR
notes: Humanized from ms-01: light chain L1, heavy chain H2
Consider B9, for which binding in test [7] was characterised by a dissociation constant (Kd) of 0.00558 µM. Compared with the last molecule, the Kd is about 1.8-fold lower.

B10: humanized antibody hu-01-L2H4 (antibody, human IgG1, kappa, V domains shown)
VH: QVQLVQSGSELKKPGASVKVSCKASGYIFTDYAIHWVKQAPGQGLKWMGFINTATGEPTYADDFKGRFVFSLDTSVSTAYLQISSLKAEDTAVYFCTSGVHWGQGTLVTVSS
VL: DIQMTQSPSTLSASVGDRVTITCSASSSVSSMHWYQQKPGKAPKLLIYSTSNLASGVPSRFSGSGSGTEYTLTISSLQPDDFATYYCHHWTSYMYTFGGGTKVEIKR
notes: Humanized from ms-01: light chain L2, heavy chain H4
Regarding B10, in test [7], the Kd turned out to be 0.0391 µM.

B11: humanized antibody hu-01-L2H2 (antibody, human IgG1, kappa, V domains shown)
VH: QVQLVQSGSELKKPGASVKVSCKASGYIFTDYAIHWVRQAPGQGLEWMGFINTATGEPTYADDFKGRFVFSLDTSVSTAYLQISSLKAEDTAVYFCTSGVHWGQGTLVTVSS
VL: DIQMTQSPSTLSASVGDRVTITCSASSSVSSMHWYQQKPGKAPKLLIYSTSNLASGVPSRFSGSGSGTEYTLTISSLQPDDFATYYCHHWTSYMYTFGGGTKVEIKR
notes: Humanized from ms-01: light chain L2, heavy chain H2
In test [7], B11 had a Kd of 0.0105 µM.

B12: humanized antibody hu-01-L3H3 (antibody, human IgG1, kappa, V domains shown)
VH: QVQLVQSGSELKKPGASVKVSCKASGYIFTDYAIHWVKQAPGQGLEWMGFINTATGEPTYADDFKGRFVFSLDTSVSTAYLQISSLKAEDTAVYFCTSGVHWGQGTLVTVSS
VL: DIQLTQSPSTLSASVGDRVTITCSASSSVSSMHWYQQKPGKSPKLLIYSTSNLASGVPSRFSGSGSGTEYTLTISSLQPDDFATYYCHHWTSYMYTFGGGTKVEIKR
notes: Humanized from ms-01: light chain L3, heavy chain H3
As to B12, in test [7], binding was put at a Kd of 0.0124 µM.

B13: humanized antibody hu-01-L2H1 (antibody, human IgG1, kappa, V domains shown)
VH: QVQLVQSGSELKKPGASVKVSCKASGYIFTDYAIHWVRQAPGQGLEWMGFINTATGEPTYADDFKGRFVFSLDTSVSTAYLQISSLKAEDTAVYYCARGVHWGQGTLVTVSS
VL: DIQMTQSPSTLSASVGDRVTITCSASSSVSSMHWYQQKPGKAPKLLIYSTSNLASGVPSRFSGSGSGTEYTLTISSLQPDDFATYYCHHWTSYMYTFGGGTKVEIKR
notes: Humanized from ms-01: light chain L2, heavy chain H1
For the molecule B13, in test [7], the binding result is on record as “no binding (tested: 100 nM (highest analyte concentration))”.

B14: humanized antibody hu-01-L3H2 (antibody, human IgG1, kappa, V domains shown)
VH: QVQLVQSGSELKKPGASVKVSCKASGYIFTDYAIHWVRQAPGQGLEWMGFINTATGEPTYADDFKGRFVFSLDTSVSTAYLQISSLKAEDTAVYFCTSGVHWGQGTLVTVSS
VL: DIQLTQSPSTLSASVGDRVTITCSASSSVSSMHWYQQKPGKSPKLLIYSTSNLASGVPSRFSGSGSGTEYTLTISSLQPDDFATYYCHHWTSYMYTFGGGTKVEIKR
notes: Humanized from ms-01: light chain L3, heavy chain H2
In turn, B14 came in with a Kd in test [7] of 0.00829 µM.

B15: humanized antibody hu-01-L1H4 (antibody, human IgG1, kappa, V domains shown)
VH: QVQLVQSGSELKKPGASVKVSCKASGYIFTDYAIHWVKQAPGQGLKWMGFINTATGEPTYADDFKGRFVFSLDTSVSTAYLQISSLKAEDTAVYFCTSGVHWGQGTLVTVSS
VL: DIQMTQSPSTLSASVGDRVTITCSASSSVSSMHWYQQKPGKAPKLLIYSTSNLASGVPSRFSGSGSGTEFTLTISSLQPDDFATYYCHHWTSYMYTFGGGTKVEIKR
notes: Humanized from ms-01: light chain L1, heavy chain H4
B15 returned a dissociation constant Kd in test [7] of 0.0482 µM.
